Kd data for two molecules are collected here from article doi:10.1101/2021.12.23.474050 (bioRxiv, 2021).

The assay concerns the target wild-type (WT) RBD of the SARS-CoV-2 spike protein (SARS-CoV-2, UniProt P0DTC2). Nature of the assay: ITC. (In ITC the heat of successive injections is recorded.)

B1: LY-CoV555 ScFv (scFv, V domains shown)
VH: QVQLVQSGAEVKKPGSSVKVSCKASGGTFSNYAISWVRQAPGQGLEWMGRIIPILGIANYAQKFQGRVTITADKSTSTAYMELSSLRSEDTAVYYCARGYYEARHYYYYYAMDVWGQGTAVTVSS
VL: not shown
For B1, binding was put at a Kd of 3.8 ± 1.9 nM.

B2: REGN-10987 ScFv (scFv, V domains shown)
VH: QVQLVESGGGVVQPGRSLRLSCAASGFTFSNYAMYWVRQAPGKGLEWVAVISYDGSNKYYADSVKGRFTISRDNSKNTLYLQMNSLRTEDTAVYYCASGSDYGDYLLVYWGQGTLVTVSS
VL: QSALTQPASVSGSPGQSITISCTGTSSDVGGYNYVSWYQQHPGKAPKLMIYDVSKRPSGVSNRFSGSKSGNTASLTISGLQSEDEADYYCNSLTSISTWVFGGGTKLTVL
Consider B2, for which the Kd (usually the free concentration of one partner at which half of the binding sites on the other are occupied at equilibrium, for simple one-to-one binding) was 34.3 ± 8.1 nM.
